Measured values published in patent US6617117.

Legend:
human GST-SAPK4 = system: T1, human GST-SAPK4
T1 sequence: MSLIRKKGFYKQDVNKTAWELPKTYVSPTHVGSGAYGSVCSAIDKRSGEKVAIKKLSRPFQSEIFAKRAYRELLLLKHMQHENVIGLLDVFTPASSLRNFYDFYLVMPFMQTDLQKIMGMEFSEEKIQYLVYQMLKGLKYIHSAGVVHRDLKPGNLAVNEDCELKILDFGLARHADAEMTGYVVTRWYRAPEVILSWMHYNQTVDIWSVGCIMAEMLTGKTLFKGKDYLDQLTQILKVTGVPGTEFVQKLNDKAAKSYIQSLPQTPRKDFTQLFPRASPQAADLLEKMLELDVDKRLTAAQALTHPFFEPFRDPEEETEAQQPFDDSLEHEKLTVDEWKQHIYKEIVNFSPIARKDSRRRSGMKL

[1] = target: SAPK3 (untagged, transfected) (rat) (UniProt Q63538); experiment: cell-based or functional assay
Chain of SAPK3 (untagged, transfected) (rat) (Q63538 whole entry): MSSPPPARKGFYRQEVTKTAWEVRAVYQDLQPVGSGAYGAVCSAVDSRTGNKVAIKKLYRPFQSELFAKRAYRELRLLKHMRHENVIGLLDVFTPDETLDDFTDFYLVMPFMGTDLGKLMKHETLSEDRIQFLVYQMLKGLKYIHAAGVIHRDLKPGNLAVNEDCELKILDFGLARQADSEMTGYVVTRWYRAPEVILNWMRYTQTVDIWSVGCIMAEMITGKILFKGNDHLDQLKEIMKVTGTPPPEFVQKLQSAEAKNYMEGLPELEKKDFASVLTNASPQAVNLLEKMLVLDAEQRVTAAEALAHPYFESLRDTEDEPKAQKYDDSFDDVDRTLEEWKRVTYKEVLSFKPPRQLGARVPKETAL

[2] = target: c-myc epitope-tagged SAPK4 (human) (UniProt O15264); experiment: cell-based or functional assay

Substance	phosphorylation and activation of SAPK4 in vitro (human GST-SAPK4)	SAPK3 activity (MBP phosphorylation) after cotransfection into COS cells [1] [fold]	activation of transfected SAPK3 by osmotic shock in cells cotransfected with SKK3 [1] [fold]	SAPK4 activity (MBP phosphorylation) after co-transfection into COS cells [2] [fold]
SKK1 (MKK4)	SAPK4 is phosphorylated and activated by SKK1 in vitro, but at a much slower rate than SAPK2a under identical conditions	–	–	–
human SKK3 (transfected, pcDNA3.1) (from UniProt P52564 1-334) (enzyme)	–	10	30	12.5
